Laboratory results published in the Human Domainome abundance scans (Beltran et al. 2025).
± gives the uncertainty stated by the source.

assay: abundance fitness (aPCA) (normalised: wild type 0, dead -1); higher = more abundant; growth selection in yeast, the domain comes from the species named; details: Homo sapiens

Row | Substance | abundance fitness
1 | DnaJ homolog subfamily B member 1 Y31V, P25685 | -0.234 ± 0.12
2 | DnaJ homolog subfamily B member 1 Y31W, P25685 | -0.188 ± 0.1
3 | DnaJ homolog subfamily B member 1 Y52A, P25685 | -0.265 ± 0.083
4 | DnaJ homolog subfamily B member 1 Y52C, P25685 | -0.404 ± 0.21
5 | DnaJ homolog subfamily B member 1 Y52D, P25685 | -0.3 ± 0.17
6 | DnaJ homolog subfamily B member 1 Y52E, P25685 | -0.441 ± 0.069
7 | DnaJ homolog subfamily B member 1 Y52F, P25685 | 0.076 ± 0.091
8 | DnaJ homolog subfamily B member 1 Y52G, P25685 | -0.194 ± 0.077
9 | DnaJ homolog subfamily B member 1 Y52H, P25685 | -0.03 ± 0.3
10 | DnaJ homolog subfamily B member 1 Y52K, P25685 | -0.337 ± 0.13
11 | DnaJ homolog subfamily B member 1 Y52L, P25685 | -0.39 ± 0.071
12 | DnaJ homolog subfamily B member 1 Y52M, P25685 | -0.049 ± 0.091
13 | DnaJ homolog subfamily B member 1 Y52N, P25685 | -0.195 ± 0.14
14 | DnaJ homolog subfamily B member 1 Y52P, P25685 | -0.466 ± 0.1
15 | DnaJ homolog subfamily B member 1 Y52Q, P25685 | -0.306 ± 0.11
16 | DnaJ homolog subfamily B member 1 Y52R, P25685 | -0.305 ± 0.071
17 | DnaJ homolog subfamily B member 1 Y52S, P25685 | -0.332 ± 0.058
18 | DnaJ homolog subfamily B member 1 Y52T, P25685 | -0.333 ± 0.089
19 | DnaJ homolog subfamily B member 1 Y52V, P25685 | -0.249 ± 0.089
20 | DnaJ homolog subfamily B member 1 Y52W, P25685 | 0.005 ± 0.074
